In US20250108132A1:

Biological target: purified cyno C3 protein (CompTech, CY113) (cynomolgous monkey (Macaca fascicularis))
Experiment: sandwich ELISA; known concentrations of purified cyno C3 read on the human C3 kit, relative to human C3

“human C3 ELISA kit (Abcam, ab108823) (antibody)” gave a cross-reactivity of 30%.
